What was measured:
[1] = biological target: T1, MBP-Rv3124-His6 (MoaR1) (Mycobacterium tuberculosis (gDNA; strain H37Rv?)) (UniProt O05797); test: competition
T1 sequence: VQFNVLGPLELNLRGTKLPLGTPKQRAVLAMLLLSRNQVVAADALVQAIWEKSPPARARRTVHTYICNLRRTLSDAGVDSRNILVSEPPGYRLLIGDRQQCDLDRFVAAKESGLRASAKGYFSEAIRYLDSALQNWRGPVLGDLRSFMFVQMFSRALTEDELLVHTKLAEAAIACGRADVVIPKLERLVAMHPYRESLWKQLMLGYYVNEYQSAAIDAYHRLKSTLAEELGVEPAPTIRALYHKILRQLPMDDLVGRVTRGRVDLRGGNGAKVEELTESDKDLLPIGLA

[2] = biological target: T1, MBP-Rv3124-His6 (MoaR1) (Mycobacterium tuberculosis (gDNA; strain H37Rv?)); test: EMSA

For “ATGGAGCTACCATATCAGGCAGCGTAGGCGTACTCATTTTCCTATCATCTTTTCGATCCTCCACTTTGGACGCAGTCGGTTAGAGCGCCTCAAGAGAGTTTCGTACAAGGGTTAACTAACAATCGTTACCGAAATGCATCGGCGCATCGTGGCGCAGCGCATGAGCCTGCGTTTATGGCGCGTTGTTAGGGCGGAATCCGACCACTCATGTGCGAGCTTTCGTT (double strand) [Rv3109pro (222 bp)]”, the binding [1] was “binds” and the binding [2] was “binds”.
